{"source": "paper PMC3425544", "about": "“The S100A10 Subunit of the Annexin A2 Heterotetramer Facilitates L2-Mediated Human Papillomavirus Infection” (PLoS ONE, 2012)", "molecules": {"B1": {"name": "secretory leukocyte protease inhibitor (protein)", "chain": "SGKSFKAGVCPPKKSAQCLRYKKPECQSDWQCPGKKRCCPDTCGIKCLDPVDTPNPTRRKPGKCPVTYGQCLMLNPPNFCEMDGQCKRDLKCCMGMCGKSCVSPVKA", "notes": "endogenous annexin A2 ligand"}}, "key": {"[1]": {"system": "A2t", "assay": "ELISA binding to immobilised A2t", "set-up": "species or system human", "details": "500 ng A2t coated, 400 ng PsV, H16.V5 or anti-SLPI detection", "procedure": "For assays to determine accessibility of L2_108–120 epitope on capsid surface, 96-well Microlon ELISA plates (USA Scientific, Ocala, FL) were incubated with 500 ng of HPV16 L1 VLP, HPV16 L1L2 VLP or HPV16 PsV in 100 µL PBS overnight at 4°C. The plate was washed with PBST ([…]) and blocked with 200 µL of PBS containing 3% BSA for 2 h at RT. The plate was washed with PBST and incubated with 1∶1000 16L2.4B4 (anti-L2_108–120) or 1∶5000 H16.V5 (anti-L1) in PBST with 1% BSA for 2 h at RT. The plate was washed and incubated with 1∶5000 rabbit-anti-mouse HRP in PBST with 1% BSA for 1 h at RT. The plate was washed, and 100 µL of the HRP substrate (o-phenylenediamine) was added. The absorbance was measured at 490 nm with a Hidex Chameleon plate reader. In control experiments, no VLP or PsV were added, and stained with primary, secondary, or both antibodies and minimal absorbance was seen. For assays to determine in vitro binding capacity of HPV16 capsids to purified A2t protein, 500 ng of purified A2t was coated separately on ELISA plates overnight at 4°C. […] Bound PsV were detected with conformational anti-L1 H16.V5 antibody, followed by anti-mouse IgG HRP antibody conjugate. Bound SLPI was detected with goat anti-SLPI antibody, followed by anti-goat IgG HRP antibody conjugate and addition of substrate."}, "[2]": {"system": "HIV-1", "details": "macrophages; ref [34]; cited from earlier work", "description": "A particular local immune event that has been well studied in the context of HPV infection is mucosal co-infection with herpes simplex virus (HSV). Historically, in the 1960s and 1970s, HSV-2 infection was thought to be a possible causative agent for cervical cancer, [31]. However, the role of HSV-2 in cervical cancer began to be questioned when HSV-2 DNA was not consistently found in cervical cancer tissues. Subsequently, HPV DNA was detected in the overwhelming majority of cervical cancer tissue and determined to be the causative agent. […] To test this hypothesis, the effect of SLPI and antibody inhibition of A2t on HPV16 infection of epithelial cel ..."}, "[3]": {"system": "HSV", "details": "ref [33]; cited from earlier work", "description": "Nonetheless, the link between HSV and H ..."}, "[4]": {"system": "HPV16 PsV infection of HeLa cells", "details": "PsV infectivity, FBS present; ref [38]; cited from earlier work", "procedure": "SLPI has shown anti-bacterial and anti-fungal activity aside from its noted anti-protease activity (reviewed in [68]). […] Concentrations in cervical mucosal fluids are commonly reported at 1 µg/ml, but are likely to be more concentrated at the cell surface. In addition, SLPI levels in cervical mucus have been measured midcycle as high as ..."}, "[5]": {"system": "HPV16 PsV infection of HaCaT cells", "assay": "HPV16 PsV infection of HaCaT cells (GFP, flow cytometry)", "assay_type": "cell-based, human", "procedure": "(§1) HeLa cells (ATCC, Manassas, VA) are human epithelial cells derived from cervical cancer, and were maintained in complete media (IMDM, 10% FBS, 1X PenStrep) at 37°C with 5% CO2 (Lonza, Walkersville, MD). HaCaT cells (Cell Lines Service, Eppelheim, Germany) are in vitro spontaneously transformed human keratinocytes derived from histologically normal skin [75] and were maintained in Defined Keratinocyte Serum-Free Media (KSFM) (Invitrogen, Carlsbad, CA) with manufacturer provided KSFM growth supplement (including insulin, EGF, and FGF) at 37°C with 5% CO2.\nWildtype HPV16 pseudovirions containing GFP reporter were produced by cotransfection of 293TT cells with plasmids encoding codon-optimized HPV16 L1 and L2 and a GFP reporter plasmid (pCIneoGFP) following published procedures. The infectious titer of PsV preparations (in infectious units/mL) was determined by flow cytometric analysis of 293TT cells treated with varying doses of PsV vector stock. Neutralization of PsV were validated in infection assays via pre-incubation with H16.V5 or H16.E70 prior to cellular exposure, and minimal infection rates of less than 1% were observed. To produce pseudovirions with a mutated L2 (108–126) region, site-directed mutagenesis was performed using overlapping mutated primers on the bicistronic packaging HPV16 pseudovirion plasmid p16sheLL as a template. Forward primer 5′-[…]-3′ and reverse primer 5′-[…]-3′ encoding the amino acid substitution of GGDD for LVEE in the L2 capsid region aa 108–111 were used with the QuikChange II XL Site-Directed Mutagenesis Kit (Stratagene, Cedar Creek, TX) according to manufacturer’s instructions. The entire L1 and L2 ORFs of the resulting plasmid were sequenced to confirm mutagenesis of the 108–111 aa L2 region and that no other unexpected mutations were introduced. HPV16 L1–L2(GGDD) PsV containing GFP reporter plasmid were produced as described above for wildtype HPV16 PsV. Confirmation and quantitation of reporter plasmid DNA encapsidation was performed using quantitative real-time PCR following plasmid DNA isolation from pseudovirion preparations by phenol chloroform extraction and ethanol precipitation. L1 content was quantitated by Coomassie Blue staining next to BSA standards following SDS-PAGE. The infectious titer of L2 mutant PsV were determined on 293TT cells as described above for WT PsV.\nHaCaT cells seeded at 3×10^4 cells/well or HeLa cells seeded at 2×10^4 cells/well were incubated overnight in 24-well plates at 37°C. The cells were subsequently incubated with wildtype HPV16 PsV containing a pCIneo-GFP vector at an MOI 100 for HaCaT or MOI of 1 for HeLa. The MOIs were chosen for each cell type that achieved 15–25% GFP-positive cells. Infectivity was scored 48 h post infection by enumerating GFP+ cells by flow cytometry. […]"}, "[6]": {"system": "HPV16 PsV infection of HeLa cells", "assay": "HPV16 PsV infection of HeLa cells (GFP, flow cytometry)", "assay_type": "cell-based, human", "details": "presence of FBS during SLPI incubation and PsV infection; data not shown", "procedure": "as §1\nWildtype HPV16 pseudovirions containing GFP reporter were produced by cotransfection of 293TT cells with plasmids encoding codon-optimized HPV16 L1 and L2 and a GFP reporter plasmid (pCIneoGFP) following published procedures. The infectious titer of PsV preparations (in infectious units/mL) was determined by flow cytometric analysis of 293TT cells treated with varying doses of PsV vector stock. […] Confirmation and quantitation of reporter plasmid DNA encapsidation was performed using quantitative real-time PCR following plasmid DNA isolation from pseudovirion preparations by phenol chloroform extraction and ethanol precipitation. L1 content was quantitated by Coomassie Blue staining next to BSA standards following SDS-PAGE. The infectious titer of L2 mutant PsV were determined on 293TT cells as described above for WT PsV. […]"}}, "note": "Entries after “also recorded” stand apart in the source; their conditions may differ."}
{"molecule": "B1", "values": [{"measurement": "binding to A2t (absorbance at 490 nm)", "setting": "[1]", "value": "significant binding"}, {"measurement": "inhibition of HIV-1 infection", "setting": "[2]", "value": "inhibit HIV-1 infection of macrophages; also recorded: inhibits the infection of HIV-1"}, {"measurement": "inhibition of HSV infection", "setting": "[3]", "value": "inhibit HSV infection"}, {"measurement": "HPV16 infection of HeLa, SLPI in presence of FBS", "setting": "[4]", "value": "no reduction in HPV16 infection"}, {"measurement": "pseudo-infection, 25 µg/mL", "setting": "[5]; 25 µg/mL SLPI vs negative and BSA controls, serum free", "value": "significant decrease in pseudo-infection"}, {"measurement": "pseudo-infection, 50 µg/mL", "setting": "[5]; 50 µg/mL SLPI vs negative and BSA controls, serum free", "value": "pseudo-infection further decreased"}, {"measurement": "decrease in pseudo-infection", "setting": "[5]; 25–50 µg/mL SLPI, 1 h at 4°C prior to PsV, serum free, vs untreated HaCaT cells, 48 h", "value": "60–80%"}, {"measurement": "SLPI inhibition of HPV16 infection", "setting": "[5]; HaCaT cells, discussion", "value": "can inhibit HPV16 infection"}, {"measurement": "PsV infection, presence of FBS", "setting": "[6]", "value": "no reduced infection; also recorded: eliminated the blocking effect of SLPI completely"}]}
